Source: US20200206304A1, “METHODS AND COMPOSITIONS FOR EFFICIENT DELIVERY THROUGH MULTIPLE BIO BARRIERS” (Cedars-Sinai Medical Center, priority 2017, published 2020)
Read-outs that look alike come from different tables or passages of the source.

Experiments:
[1] = sagittal sinus, 0.068 μmol/kg
brain parenchyma = test system: brain parenchyma
Experimental: To determine how nanoconjugate-associated fluorescence relates to the anatomy of the vasculature, the distance of each analyzed ROI was manually measured from the nearest blood vessel wall (using line tool in FIJI). For tumor bearing mice, 5 images per tumor tissue and 5 per brain tissue were analyzed for each mouse. Intensity values were then plotted against the location of the blood vessel wall and summarized in scatterplots (e.g., FIG. 14B).
Drug concentrations are listed with regard to total nanoconjugate content systemically injected. […] Referring to FIG. 14B, fluorescence measurements were obtained from 10 μm^2-sized regions of interest (ROI) that were randomly overlaid on regions devoid of vasculature shown as yellow squares on photograph 1 of FIG. 14A. Intensity measurements and positions were then obtained for each ROI and plotted against the location of the nearest blood vessel wall. FIG. 14C is set of charts: chart 1—Cortex; chart 2—Midbrain and chart 3 Hippocampus, illustrating average nanoconjugate fluorescence in the brain parenchyma measured following injections at four different drug concentrations. In this figure, fluorescence is shown as relative fluorescence, which is the measured nanoconjugate fluorescence after subtraction of autofluorescence imaged from PBS injected animals using similar acquisition settings.
FIG. 14B explores this relationship in a plot from all of the measurements (for each condition: 4 mice, 3-4 sections with 20 random measurements each). All fluorescence intensity measurements were conducted with 10 μm^2-sized regions of interest placed outside of tomato-lectin stained blood vessels (ROI as in Photograph 1 of FIG. 14A); the positions of these ROIs were then measured against the location of the nearest blood vessel wall to produce the scatterplot in FIG. 14B.
The resulting data were used as a metric to examine how well the mini nanodrug was able to travel from the vessels into the surrounding parenchyma and encounter brain cells. […] Nanoconjugate diffused fluorescence intensity vs. ‘distance from vasculature’ measurements in brain parenchyma of mice injected with nanoconjugates at a dose of 0.274 μmol/Kg. Fluorescence measurements were obtained from […] regions of interest (ROI) that were randomly overlaid on regions devoid of vasculature (shown by yellow squares in FIG. 22A). Intensity measurements and positions were then obtained for each ROI and plotted against the location of the nearest blood vessel wall.

[2] = 0.5, 1, 2 and 4 hours after injection
[3] = not given; remark: listed apart in the source
brain cells = conditions: cortex
Experimental: For the particulate fluorescence analysis, images were converted to binary images, and then 5 ROIs 20*20 μm^2 were drawn per image. The area of each particle on the ROI was measured using the Image) particle analysis tool, where each particle was measured separately. Sizes were then summarized, sorted, and further analyzed using Minitab18 software (Minitab, Inc, State College, Pa., USA). Particulate areas observed between different conditions were compared via a one-way ANOVA combined with post-hoc Tukey tests to test differences between each experimental group.
A more reliable method to separate the particulate from the cellular fluorescence was reasoned to be by adjusting the levels of the image and converting it to a binary image, allowing the detection of only particulates eliminating interference of the diffused background. FIGS. 29A-29D illustrate intracellular fluorescence of mini nanodrugs.
Each ROI was converted to binary (black and white) image and the area and number of particles were quantified. 3 images per brain area were tested for 3 mice per group.
The particle content (example of ROI in FIG. 29A) then was measured. The average size of the particulate fluorescence is a proxy to estimate the intracellular load of fluorescent nanoconjugates following their injections. An example of such an analysis is shown in FIG. 29A: the yellow squares indicate regions of interest that were used to quantify particulate fluorescence. FIGS. 29B-29C summarize the average size of the intracellular fluorescence particles in the cortex ([…]), midbrain (FIG. 29C), and the hippocampus (FIG. 29C).

neurons and astroglia = conditions: mouse, in vivo
Experimental: Neuronal and glial counterstaining: In FIGS. 27A-27C, brain tissue from drug-injected mice was counterstained to determine if our nanoconjugates are taken up by neurons or glia. Cryosections ([…]) were air-dried for 10 min, fixed with 2% paraformaldehyde for 5 min, and then rinsed three times with PBS. […] The antibodies anti-Neun (Abcam, Cambridge, Mass., USA; AB104225) and anti-GFAP (Neuromics, Edina, Minn., USA; C1122102) were then diluted 1:500 in PBS-T and tissue sections incubated simultaneously with antibody solutions overnight at 4° C. in a humid chamber. Tissue sections were then washed five times with PBS-T and incubated in appropriate secondary antibody diluted 1:250 in PBS-T, for 2-4 h. After five washes in PBS at room temperature, sections were mounted between coverslips in Fluoromount-G with DAPI.
To this end, after systemic injection of our D-conjugates we counterstained brain tissue sections of hippocampus and cortex with anti-Neun to label neurons, and with anti-GFAP to label astroglia (FIGS. 27A-27C) and inspected the stained sections for red fluorescent particulates. […] Positive neurons and glia cells were counted after systemic injection of conjugates containing D1, D3, AC189 peptides, and of a control PBS (FIGS. 27A-27C).

[4] = Dynamic light scattering, hydrodynamic diameter and PDI; assay type: physicochemical; conditions: DLS in PBS, conjugates without attached rhodamine
Experimental: Dynamic Light Scattering: Synthesized conjugates were characterized using a Zetasizer Nano ZS90 (Malvern Instruments, Malvern, UK). Ten microliter aliquots of nanoconjugate samples were diluted in 0.99 mL PBS and were measured 3 times using a clear cuvette. Data represent the mean of three measurements and polydispersity index.

[5] = test system: blood-brain barrier (BBB); conditions: Israel et al., 2019; cited from earlier work
[6] = test system: LRP-1 transcytosis pathway; conditions: 70-fold molar excess of P/LLL (40%)
Brain (other hemisphere) = conditions: 2 h, PBS background subtracted
[7] = comparison, Israel et al., 2019; cited from earlier work

PMLA/LLL/AP2/rhodamine [P/LLL/AP2]
optical half-life (optically measured serum clearance) [1]: 1.22 h | fluorescence intensity decrease (slope), linear regression vs distance from vessel (brain parenchyma; 0.274 μmol/kg, 120 min): −0.272±0.07 | γ-intercept of linear regression, fluorescence vs distance (brain parenchyma; 0.274 μmol/kg, 120 min): 17.49±0.8 | γ-intercept of linear regression, fluorescence vs distance (brain parenchyma; 0.068 mol/kg, 120 min): 6.342±0.34 | cortex Y intercepts of fluorescence vs distance curves (exponential fits) (brain parenchyma; cortex, 0.274 μmol/Kg): 14.7 | Visibility of nanoconjugate around blood vessels in ex vivo brain slices [2]: visible around blood vessels for two hours and almost disappeared at 4 hours | estimated parenchyma concentration (cortex, 120 min, 0.068 μmol/kg injection): 0.049 ± 0.001 µmol/mL | percentage of free serum drug detected in the brain (within 120 minutes after i.v. administration): ≥ 40% | serum concentration at 120 minutes ([3]; 0.068 μmol/kg injection): 1.15e+08 µM | serum drug concentration at 120 minutes post injection ([3]; 0.068 μmol/kg injection): 115 µM | serum half-life ([3]; i.v. 0.068 μmol/kg, single exponential decay fit): 1.28 h | average area per particle (brain cells): 0.42±0.72 μm^2 | cell association in GFAP and NEUN staining (neurons and astroglia): no cell association | Hydrodynamic diameter (volume mode) [4]: 4.45 nm | PDI [4]: (0.39) | PDI ([4]; listed as P/LLL/AP-2): 0.39 | half-life of first decline in brain parenchyma [5]: > 2 h | time independent plateau in parenchyma [5]: > 240 min | competition by unlabeled P/LLL (40%) [6]: did not exhibit competition | Brain (other hemisphere) fluorescence (Brain (other hemisphere); dose 1X): 2.1 | Brain (other hemisphere) fluorescence (Brain (other hemisphere); dose 4X): 9.4 | half-life in blood [7]: 1.28 h
